Data as given in PMC4258549.
Where two headings read alike, the source gives them in different places.

Tests used:
Assay in all cases: AlphaScreen or HTRF
[1] = biological target: myc-tagged Eap (Staphylococcus aureus) (UniProt Q99QS1)
biotinylated C4b (human) [2] = biological target: biotinylated C4b (human)
biotinylated C4b (human) [3] = biological target: biotinylated C4b (human); remark: listed apart in the source

Sequence of C4b-binding protein (P04003 49-597): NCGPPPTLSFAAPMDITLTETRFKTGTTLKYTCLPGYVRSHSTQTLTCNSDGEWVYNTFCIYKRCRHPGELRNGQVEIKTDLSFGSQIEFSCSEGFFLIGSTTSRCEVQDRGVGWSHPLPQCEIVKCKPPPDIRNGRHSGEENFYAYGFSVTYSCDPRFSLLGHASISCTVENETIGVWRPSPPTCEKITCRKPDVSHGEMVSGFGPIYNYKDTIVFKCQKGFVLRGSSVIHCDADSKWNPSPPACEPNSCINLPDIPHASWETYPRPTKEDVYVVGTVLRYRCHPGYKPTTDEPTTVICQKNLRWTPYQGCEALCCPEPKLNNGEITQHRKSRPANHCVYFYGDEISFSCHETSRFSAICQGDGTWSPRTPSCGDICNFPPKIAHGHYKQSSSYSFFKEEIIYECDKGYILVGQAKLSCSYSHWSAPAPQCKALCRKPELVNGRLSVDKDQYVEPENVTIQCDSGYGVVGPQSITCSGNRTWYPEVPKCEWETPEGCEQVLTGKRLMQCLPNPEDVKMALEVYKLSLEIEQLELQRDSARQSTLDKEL
Sequence of C4b-binding protein (P20851 18-252): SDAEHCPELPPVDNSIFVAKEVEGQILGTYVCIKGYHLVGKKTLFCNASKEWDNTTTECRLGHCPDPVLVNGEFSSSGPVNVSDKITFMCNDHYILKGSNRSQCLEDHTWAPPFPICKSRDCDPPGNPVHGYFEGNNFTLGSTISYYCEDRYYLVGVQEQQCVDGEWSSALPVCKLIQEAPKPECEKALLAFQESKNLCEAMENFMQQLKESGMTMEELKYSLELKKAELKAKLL
Sequence of myc-tagged Eap (Staphylococcus aureus) (Q99QS1 31-476): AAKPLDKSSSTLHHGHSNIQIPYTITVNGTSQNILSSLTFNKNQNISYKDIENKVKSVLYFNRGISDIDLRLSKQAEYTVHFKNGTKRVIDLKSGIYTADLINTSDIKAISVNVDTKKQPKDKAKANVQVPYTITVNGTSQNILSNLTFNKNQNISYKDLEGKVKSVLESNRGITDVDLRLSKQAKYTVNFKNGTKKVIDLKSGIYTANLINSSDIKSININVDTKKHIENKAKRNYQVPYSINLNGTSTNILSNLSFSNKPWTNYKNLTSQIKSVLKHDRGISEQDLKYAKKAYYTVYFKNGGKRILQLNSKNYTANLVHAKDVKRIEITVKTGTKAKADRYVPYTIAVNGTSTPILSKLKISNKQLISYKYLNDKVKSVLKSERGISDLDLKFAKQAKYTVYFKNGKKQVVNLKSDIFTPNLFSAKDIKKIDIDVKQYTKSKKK

Row | Substance | Kd [1] [nM] | IC50 (biotinylated C4b (human) [2]) [nM] | IC50 (biotinylated C4b (human) [3]) [nM]
1 | native complement component C4 (complex) | 45 |  | 
2 | C4c (complex) | 138 |  | 
3 | C2b fragment of complement component C2, recombinant (domain or fragment) |  | 3500 | 
4 | C4b-binding protein (from UniProt P04003 49-597; P20851 18-252) (complex) |  | 21 | 13
